The values that follow are results of earlier work, collected in US5866681A, “Thrombin receptor antagonists” (priority 1995, dated 1999).

Where no end group is shown, it is not given here.

In the data set the target is T1, platelet thrombin receptors (Homo sapiens, UniProt P25116).
T1 construct: host or cells: platelets
T1 sequence (P25116 22-425): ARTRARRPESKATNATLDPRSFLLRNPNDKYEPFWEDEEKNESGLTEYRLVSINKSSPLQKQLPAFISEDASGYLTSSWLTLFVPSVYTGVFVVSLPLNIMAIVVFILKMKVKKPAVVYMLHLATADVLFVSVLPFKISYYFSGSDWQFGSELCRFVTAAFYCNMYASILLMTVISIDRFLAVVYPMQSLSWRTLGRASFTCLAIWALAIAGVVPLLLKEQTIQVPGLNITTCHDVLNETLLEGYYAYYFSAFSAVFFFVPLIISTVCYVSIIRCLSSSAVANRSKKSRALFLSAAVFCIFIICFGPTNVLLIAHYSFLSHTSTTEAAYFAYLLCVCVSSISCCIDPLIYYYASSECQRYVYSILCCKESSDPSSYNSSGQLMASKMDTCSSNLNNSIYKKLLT
The settings on record: platelet thrombin receptors activated with either thrombin or agonist peptides; cited from earlier work.

With “Phe-Leu-Leu-Arg-Asn-OH (FLLRN-OH) [pentapeptide based on a portion of the agonist peptide minimum structure]”, the “thrombin receptor antagonist activity” value is listed as “weak antagonist”.
